Test results published in article PMC9482650, “Quantitative fragmentomics allow affinity mapping of interactomes” (Nature Communications, 2022).
Values belong to the binder of their own block, whether it stands above or below them.

Assays:
Test in all cases: holdup assay
Design in all cases: key: below the threshold = too weak to quantify, mostly under pKd 3.1 to 4
NOS1, P29475 = molecular target: NOS1, P29475
PARD3B_1, Q8TEW8 = molecular target: T1, PARD3B_1, Q8TEW8
T1 sequence (Q8TEW8 196-299, limits assumed, looked up): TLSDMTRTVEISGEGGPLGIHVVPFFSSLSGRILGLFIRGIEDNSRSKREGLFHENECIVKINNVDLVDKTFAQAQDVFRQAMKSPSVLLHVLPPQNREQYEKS

DFNB31_3, Q9P202 = molecular target: T2, DFNB31_3, Q9P202
T2 sequence (Q9P202 811-907, limits assumed, looked up): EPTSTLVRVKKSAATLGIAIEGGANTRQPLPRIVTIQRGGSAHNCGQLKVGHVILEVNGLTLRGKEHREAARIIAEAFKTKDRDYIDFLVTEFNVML

GRIP1_4, Q9Y3R0 = molecular target: T3, GRIP1_4, Q9Y3R0
T3 sequence (Q9Y3R0 467-571, limits assumed, looked up): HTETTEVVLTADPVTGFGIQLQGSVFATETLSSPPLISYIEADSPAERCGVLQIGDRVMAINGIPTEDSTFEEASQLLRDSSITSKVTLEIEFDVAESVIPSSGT

FRMPD3, Q5JV73 = molecular target: FRMPD3, Q5JV73
MAGI2_3, Q86UL8 = molecular target: MAGI2_3, Q86UL8
GRIP1_5, Q9Y3R0 = molecular target: T4, GRIP1_5, Q9Y3R0
T4 sequence (Q9Y3R0 568-668, limits assumed, looked up): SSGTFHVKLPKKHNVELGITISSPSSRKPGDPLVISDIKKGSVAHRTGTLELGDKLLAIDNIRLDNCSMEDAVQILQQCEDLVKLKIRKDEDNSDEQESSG

DLG2_3, Q15700 = molecular target: DLG2_3, Q15700
Inadl_1, Q8NI35 = molecular target: Inadl_1, Q8NI35
PDZD7_3, Q9H5P4 = molecular target: T5, PDZD7_3, Q9H5P4
T5 sequence (Q9H5P4 857-944, limits assumed, looked up): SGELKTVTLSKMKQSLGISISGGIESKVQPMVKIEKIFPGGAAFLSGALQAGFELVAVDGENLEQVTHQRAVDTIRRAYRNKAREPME

PDLIM1, O00151 = molecular target: PDLIM1, O00151
FRMPD2_1, Q68DX3 = molecular target: FRMPD2_1, Q68DX3
SIPA1L2, Q9P2F8 = molecular target: T6, SIPA1L2, Q9P2F8
T6 sequence (Q9P2F8 945-1036, limits assumed, looked up): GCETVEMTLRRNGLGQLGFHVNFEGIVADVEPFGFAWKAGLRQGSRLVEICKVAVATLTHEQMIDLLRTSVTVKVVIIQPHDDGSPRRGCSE

APBA1_2, Q02410 = molecular target: T7, APBA1_2, Q02410
T7 sequence (Q02410 742-832, limits assumed, looked up): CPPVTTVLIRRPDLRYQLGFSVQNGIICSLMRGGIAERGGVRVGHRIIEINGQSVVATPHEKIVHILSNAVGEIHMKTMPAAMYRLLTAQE

Inadl_6, Q8NI35 = molecular target: Inadl_6, Q8NI35
PTPN3, P26045 = molecular target: PTPN3, P26045
MPDZ_5, O75970 = molecular target: T8, MPDZ_5, O75970
T8 sequence (O75970 695-796, limits assumed, looked up): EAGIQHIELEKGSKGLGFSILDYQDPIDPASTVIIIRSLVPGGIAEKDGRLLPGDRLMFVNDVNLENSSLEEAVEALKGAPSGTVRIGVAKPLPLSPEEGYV

FRMPD1, Q5SYB0 = molecular target: T9, FRMPD1, Q5SYB0
T9 sequence (Q5SYB0 52-145, limits assumed, looked up): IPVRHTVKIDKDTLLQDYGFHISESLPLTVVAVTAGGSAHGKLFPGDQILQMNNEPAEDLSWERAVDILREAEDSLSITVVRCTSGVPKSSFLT

FRMPD4, Q14CM0 = molecular target: FRMPD4, Q14CM0
NHERF4_2, Q86UT5 = molecular target: NHERF4_2, Q86UT5
LNX1_3, Q8TBB1 = molecular target: LNX1_3, Q8TBB1
Inadl_10, Q8NI35 = molecular target: Inadl_10, Q8NI35
MAGI3_2, Q5TCQ9 = molecular target: MAGI3_2, Q5TCQ9
Inadl_4, Q8NI35 = molecular target: Inadl_4, Q8NI35
SHANK1, Q9Y566 = molecular target: T10, SHANK1, Q9Y566
T10 sequence (Q9Y566 658-767, limits assumed, looked up): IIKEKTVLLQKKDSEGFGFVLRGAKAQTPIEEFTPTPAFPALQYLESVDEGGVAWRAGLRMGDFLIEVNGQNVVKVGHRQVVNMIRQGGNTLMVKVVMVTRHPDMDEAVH

PDZRN4_1, Q6ZMN7 = molecular target: PDZRN4_1, Q6ZMN7
LNX2_2, Q8N448 = molecular target: T11, LNX2_2, Q8N448
T11 sequence (Q8N448 334-432, limits assumed, looked up): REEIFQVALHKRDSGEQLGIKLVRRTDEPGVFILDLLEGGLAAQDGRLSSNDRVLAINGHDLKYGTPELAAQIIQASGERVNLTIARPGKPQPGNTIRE

[1] = plain residues with an end cap or a label only (N-terminal biotin on a linker: ttds)
[2] = plain residues with an end cap or a label only (N-terminal biotin on a linker: ahx)

Chain of PDZRN4_1, Q6ZMN7 (Q6ZMN7 213-318): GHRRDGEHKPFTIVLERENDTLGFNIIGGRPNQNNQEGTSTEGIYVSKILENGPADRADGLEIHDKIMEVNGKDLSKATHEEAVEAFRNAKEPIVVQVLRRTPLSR
Chain of Inadl_10, Q8NI35 (Q8NI35 1673-1763): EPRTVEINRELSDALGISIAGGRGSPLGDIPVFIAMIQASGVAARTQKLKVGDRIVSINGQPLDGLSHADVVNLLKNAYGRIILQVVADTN
Chain of Inadl_6, Q8NI35 (Q8NI35 1058-1167): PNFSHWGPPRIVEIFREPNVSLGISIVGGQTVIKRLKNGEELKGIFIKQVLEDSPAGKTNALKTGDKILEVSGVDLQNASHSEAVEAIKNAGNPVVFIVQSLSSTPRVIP
Chain of FRMPD3, Q5JV73 (Q5JV73 12-100): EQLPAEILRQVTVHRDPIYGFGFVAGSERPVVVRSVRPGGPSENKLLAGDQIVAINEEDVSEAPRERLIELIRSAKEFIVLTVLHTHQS
Chain of NOS1, P29475 (P29475 9-101): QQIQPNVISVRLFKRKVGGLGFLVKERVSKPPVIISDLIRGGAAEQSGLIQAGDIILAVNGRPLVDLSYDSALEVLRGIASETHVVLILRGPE
Chain of MAGI2_3, Q86UL8 (Q86UL8 600-682): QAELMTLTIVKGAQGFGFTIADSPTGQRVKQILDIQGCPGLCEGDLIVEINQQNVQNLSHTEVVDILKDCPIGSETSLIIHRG
Chain of PTPN3, P26045 (P26045 505-587): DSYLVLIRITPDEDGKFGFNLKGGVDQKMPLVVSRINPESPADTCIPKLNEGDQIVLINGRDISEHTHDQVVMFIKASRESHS
Chain of LNX1_3, Q8TBB1 (Q8TBB1 500-596): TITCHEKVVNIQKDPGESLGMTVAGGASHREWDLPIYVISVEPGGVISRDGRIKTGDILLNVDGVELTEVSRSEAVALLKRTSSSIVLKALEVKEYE
Chain of FRMPD4, Q14CM0 (Q14CM0 67-160): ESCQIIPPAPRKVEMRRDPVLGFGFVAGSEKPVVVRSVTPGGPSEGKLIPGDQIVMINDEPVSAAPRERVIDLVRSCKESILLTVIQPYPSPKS
Chain of Inadl_4, Q8NI35 (Q8NI35 547-651): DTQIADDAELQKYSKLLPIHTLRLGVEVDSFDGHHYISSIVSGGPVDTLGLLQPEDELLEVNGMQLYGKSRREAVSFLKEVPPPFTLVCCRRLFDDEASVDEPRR
Chain of PDLIM1, O00151 (O00151 1-87): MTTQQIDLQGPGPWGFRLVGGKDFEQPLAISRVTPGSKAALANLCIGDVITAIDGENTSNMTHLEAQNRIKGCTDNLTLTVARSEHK
Chain of Inadl_1, Q8NI35 (Q8NI35 113-229): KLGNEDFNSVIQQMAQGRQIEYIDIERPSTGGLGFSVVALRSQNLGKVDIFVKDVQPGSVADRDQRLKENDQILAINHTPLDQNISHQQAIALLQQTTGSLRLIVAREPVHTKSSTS
Chain of MAGI3_2, Q5TCQ9 (Q5TCQ9 398-503): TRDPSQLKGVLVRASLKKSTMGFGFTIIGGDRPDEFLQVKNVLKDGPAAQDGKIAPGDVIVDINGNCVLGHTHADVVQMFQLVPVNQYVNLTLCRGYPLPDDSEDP
Chain of NHERF4_2, Q86UT5 (Q86UT5 220-308): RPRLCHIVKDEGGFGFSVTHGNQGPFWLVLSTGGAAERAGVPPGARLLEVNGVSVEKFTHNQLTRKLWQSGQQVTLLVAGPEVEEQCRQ
Chain of FRMPD2_1, Q68DX3 (Q68DX3 770-861): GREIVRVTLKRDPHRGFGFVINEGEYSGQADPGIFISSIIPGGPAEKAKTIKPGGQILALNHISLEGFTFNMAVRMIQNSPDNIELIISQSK

pKd (NOS1, P29475; [1]): below the threshold
pKd (PARD3B_1, Q8TEW8; [1]): below the threshold
pKd (DFNB31_3, Q9P202; [1]): below the threshold
pKd (GRIP1_4, Q9Y3R0; [1]): below the threshold
pKd (FRMPD3, Q5JV73; [1]): below the threshold
pKd (MAGI2_3, Q86UL8; [1]): below the threshold
pKd (GRIP1_5, Q9Y3R0; [1]): 3.65
pKd (DLG2_3, Q15700; [1]): below the threshold
pKd (Inadl_1, Q8NI35; [1]): 3.66
pKd (PDZD7_3, Q9H5P4; [1]): 3.67
pKd (PDLIM1, O00151; [1]): below the threshold
pKd (FRMPD2_1, Q68DX3; [1]): below the threshold
pKd (SIPA1L2, Q9P2F8; [1]): below the threshold
pKd (APBA1_2, Q02410; [1]): 3.54
pKd (Inadl_6, Q8NI35; [1]): below the threshold
pKd (PTPN3, P26045; [1]): below the threshold
pKd (MPDZ_5, O75970; [1]): below the threshold
pKd (FRMPD1, Q5SYB0; [1]): below the threshold
pKd (FRMPD4, Q14CM0; [1]): below the threshold
pKd (NHERF4_2, Q86UT5; [1]): below the threshold
pKd (LNX1_3, Q8TBB1; [1]): below the threshold
pKd (Inadl_10, Q8NI35; [1]): below the threshold
pKd (MAGI3_2, Q5TCQ9; [1]): 4.07
pKd (Inadl_4, Q8NI35; [1]): below the threshold
pKd (SHANK1, Q9Y566; [1]): 3.64
pKd (PDZRN4_1, Q6ZMN7; [1]): below the threshold
pKd (LNX2_2, Q8N448; [1]): below the threshold
Binder: PRVKPQRSKV [PPP1R13L, Q8WUF5]

pKd (NOS1, P29475; [1]): 4.11
pKd (PARD3B_1, Q8TEW8; [1]): 3.68
pKd (DFNB31_3, Q9P202; [1]): 3.69
pKd (GRIP1_4, Q9Y3R0; [1]): below the threshold
pKd (FRMPD3, Q5JV73; [1]): 3.64
pKd (MAGI2_3, Q86UL8; [1]): below the threshold
pKd (GRIP1_5, Q9Y3R0; [1]): below the threshold
pKd (DLG2_3, Q15700; [1]): 3.86
pKd (PDZD7_3, Q9H5P4; [1]): 5.03
pKd (PDLIM1, O00151; [1]): below the threshold
pKd (FRMPD2_1, Q68DX3; [1]): 3.97
pKd (SIPA1L2, Q9P2F8; [1]): below the threshold
pKd (APBA1_2, Q02410; [1]): 3.79
pKd (PTPN3, P26045; [1]): below the threshold
pKd (MPDZ_5, O75970; [1]): 3.66
pKd (FRMPD1, Q5SYB0; [1]): 3.61
pKd (FRMPD4, Q14CM0; [1]): 3.55
pKd (NHERF4_2, Q86UT5; [1]): below the threshold
pKd (LNX1_3, Q8TBB1; [1]): below the threshold
pKd (MAGI3_2, Q5TCQ9; [1]): 4.65
pKd (SHANK1, Q9Y566; [1]): below the threshold
pKd (PDZRN4_1, Q6ZMN7; [1]): 3.91
pKd (LNX2_2, Q8N448; [1]): 4.93
Binder: EMDRRPATVV [PLCB4, Q15147]

pKd (NOS1, P29475; [2]): below the threshold
pKd (PARD3B_1, Q8TEW8; [2]): below the threshold
pKd (DFNB31_3, Q9P202; [2]): below the threshold
pKd (GRIP1_4, Q9Y3R0; [2]): below the threshold
pKd (FRMPD3, Q5JV73; [2]): below the threshold
pKd (MAGI2_3, Q86UL8; [2]): below the threshold
pKd (GRIP1_5, Q9Y3R0; [2]): below the threshold
pKd (DLG2_3, Q15700; [2]): below the threshold
pKd (Inadl_1, Q8NI35; [2]): below the threshold
pKd (PDLIM1, O00151; [2]): below the threshold
pKd (FRMPD2_1, Q68DX3; [2]): below the threshold
pKd (SIPA1L2, Q9P2F8; [2]): below the threshold
pKd (APBA1_2, Q02410; [2]): below the threshold
pKd (Inadl_6, Q8NI35; [2]): below the threshold
pKd (PTPN3, P26045; [2]): below the threshold
pKd (MPDZ_5, O75970; [2]): below the threshold
pKd (FRMPD1, Q5SYB0; [2]): below the threshold
pKd (FRMPD4, Q14CM0; [2]): below the threshold
pKd (NHERF4_2, Q86UT5; [2]): below the threshold
pKd (LNX1_3, Q8TBB1; [2]): below the threshold
pKd (Inadl_10, Q8NI35; [2]): below the threshold
pKd (MAGI3_2, Q5TCQ9; [2]): below the threshold
pKd (Inadl_4, Q8NI35; [2]): below the threshold
pKd (SHANK1, Q9Y566; [2]): below the threshold
pKd (PDZRN4_1, Q6ZMN7; [2]): below the threshold
pKd (LNX2_2, Q8N448; [2]): below the threshold
Binder: PSASCAVTAA [PDLIM4, P50479;P50479-2]

Further lines, the binder ahead of its results:

Binder: LSDPSVSTVV [GRIN1, Q05586;Q05586-2]
pKd (NOS1, P29475; [2]): below the threshold
pKd (PARD3B_1, Q8TEW8; [2]): below the threshold
pKd (DFNB31_3, Q9P202; [2]): below the threshold
pKd (GRIP1_4, Q9Y3R0; [2]): below the threshold
pKd (FRMPD3, Q5JV73; [2]): below the threshold
pKd (MAGI2_3, Q86UL8; [2]): below the threshold
pKd (GRIP1_5, Q9Y3R0; [2]): below the threshold
pKd (DLG2_3, Q15700; [2]): 4.26
pKd (Inadl_1, Q8NI35; [2]): below the threshold
pKd (PDZD7_3, Q9H5P4; [2]): 4.54
pKd (PDLIM1, O00151; [2]): below the threshold
pKd (FRMPD2_1, Q68DX3; [2]): below the threshold
pKd (SIPA1L2, Q9P2F8; [2]): below the threshold
pKd (APBA1_2, Q02410; [2]): below the threshold
pKd (Inadl_6, Q8NI35; [2]): below the threshold
pKd (PTPN3, P26045; [2]): below the threshold
pKd (MPDZ_5, O75970; [2]): below the threshold
pKd (FRMPD1, Q5SYB0; [2]): below the threshold
pKd (FRMPD4, Q14CM0; [2]): below the threshold
pKd (NHERF4_2, Q86UT5; [2]): below the threshold
pKd (LNX1_3, Q8TBB1; [2]): below the threshold
pKd (Inadl_10, Q8NI35; [2]): below the threshold
pKd (MAGI3_2, Q5TCQ9; [2]): below the threshold
pKd (Inadl_4, Q8NI35; [2]): below the threshold
pKd (PDZRN4_1, Q6ZMN7; [2]): below the threshold
pKd (LNX2_2, Q8N448; [2]): 4.64

Binder: NDPAWDETNL [ARHGEF7, Q14155;Q14155-1]
pKd (NOS1, P29475; [1]): below the threshold
pKd (DFNB31_3, Q9P202; [1]): below the threshold
pKd (GRIP1_4, Q9Y3R0; [1]): below the threshold
pKd (MAGI2_3, Q86UL8; [1]): below the threshold
pKd (GRIP1_5, Q9Y3R0; [1]): below the threshold
pKd (DLG2_3, Q15700; [1]): below the threshold
pKd (PDZD7_3, Q9H5P4; [1]): 4.24
pKd (PDLIM1, O00151; [1]): below the threshold
pKd (FRMPD2_1, Q68DX3; [1]): below the threshold
pKd (SIPA1L2, Q9P2F8; [1]): below the threshold
pKd (Inadl_6, Q8NI35; [1]): 4.09
pKd (PTPN3, P26045; [1]): 4.44
pKd (MPDZ_5, O75970; [1]): below the threshold
pKd (FRMPD1, Q5SYB0; [1]): below the threshold
pKd (FRMPD4, Q14CM0; [1]): 4.66
pKd (NHERF4_2, Q86UT5; [1]): below the threshold
pKd (LNX1_3, Q8TBB1; [1]): below the threshold
pKd (Inadl_10, Q8NI35; [1]): below the threshold
pKd (MAGI3_2, Q5TCQ9; [1]): below the threshold
pKd (Inadl_4, Q8NI35; [1]): below the threshold
pKd (SHANK1, Q9Y566; [1]): 4.79
pKd (PDZRN4_1, Q6ZMN7; [1]): 3.98
pKd (LNX2_2, Q8N448; [1]): below the threshold
